The experiment has as its target MET receptor (endogenous, on EHMES-1 cells) (human (endogenous in EHMES-1)) (UniProt P08581).

One substance from article PMC6220203, “Cellular signaling and gene expression profiles evoked by a bivalent macrocyclic peptide that serves as an artificial MET receptor agonist” (Scientific Reports, 2018) can be followed below.

“MET receptor (endogenous, on EHMES-1 cells) (from UniProt P08581 25-1390)” had an MET receptor Tyr1234/1235 phosphorylation (cell-based enzyme-linked immunosorbent assay) in EHMES-1 cells against the concentration of aMD5-PEG11; bell-shaped profile of 120 nM.
